{"source": "paper doi:10.1101/2025.09.29.679341", "about": "(bioRxiv, 2025)", "molecular_target": "the molecule itself", "assay": "cryo-EM structure"}
{"protein": "truncated β3-SBP (GABAA receptor β3 subunit, M3-M4 loop replaced by SQPARAA), from Expi293F cells (receptor) QSVNDPGNMSFVKETVDKLLKGYDIRLRPDFGGPPVCVGMNIDIASIDMVSEVNMDYTLTMYFQQYWRDKRLAYSGIPLNLTLDNRVADQLWVPDTYFLNDKKSFVHGVTVKNRMIRLHPDGTVLYGLRITTTAACMMDLRRYPLDEQNCTLEIESYGYTTDDIEFYWRGGDKAVTGVERIELPQFSIVEHRLVSRNVVFATGAYPRLSLSFRLKRNIGYFILQTYMPSILITILSWVSFWINYDASAARVALGITTVLTMTTINTHLRETLPKIPYVKAIDMYLMGCFVFVFLALLEYAFVNYIFFSQPARAAAIDRWSRIVFPFTFSLFNLVYWLYYVN", "values": [{"measurement": "stoichiometry N", "result": 5}]}
